Biological target: HLA-A2 molecules on T2 cells (human)
Experiment: T2 cell-binding assay, flow cytometry of HLA-A2 on T2 cells, peptide 25 µg/mL; negative control
Conditions: remark: other sources report otherwise

B1: CAP-7 peptide (peptide)
peptide: HLFGYSWYK
For B1, which T2 Binding (mean fluorescence intensity) is on record?
Its T2 Binding (mean fluorescence intensity) is 88 MFI.

Reference: patent publication US20140287029A1
